Results as given in the supplement of paper PMC6757056.
± gives the standard deviation of the averaged measurements.

B1: library; a variant is named by its letters at N, in order (parent)
chain: GCUGUCACCGAGAAACUGUGAAGUAUAUCUUAAACCUGGGCACUUAAAAGAUAUAUGGAGUUAGUAGUGCAACCUGCUCGGUCUGAUGAGUCCNNNNNNGGACGAAACAGC

Key:
[1] = variants of: B1; test: normalized RNA/DNA level without ligand (relative to sTRSVctl = 100) (log10 (% of sTRSVctl)); HEK293T; ligand: cyclic di-GMP (c-di-GMP-II aptamer); higher = less ribozyme self-cleavage, higher mRNA level; settings: reporter: mCherry (pCS4076), ligand present: no
In short: (§1)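 Ribozyme switch library plasmids with mCherry reporters (eGFP in certain ligand experiments) went into HEK293T cells at 4 µg per 6-well well. Where ligand was used, it was applied 1 h before transfection, and total RNA was extracted with EDTA 72 h later for reverse transcription, amplification, barcoding and sequencing. RNA level is the RNA-to-DNA read ratio normalized to a spiked-in non-cleaving sequence or to the leading sequences, then scaled and log-transformed. Scaling was ×100 with log10, the leading set comprised 25 sequences, and the cutoff was ≥100 DNA reads.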

[2] = variants of: B1; test: normalized RNA/DNA level with ligand (relative to sTRSVctl = 100) (log10 (% of sTRSVctl)); HEK293T; ligand: cyclic di-GMP (c-di-GMP-II aptamer); ligand concentration (+) RNA-Seq: 1 mM; higher = less ribozyme self-cleavage, higher mRNA level; settings: reporter: mCherry (pCS4076), ligand present: yes
In short: as §1

Variant | normalized RNA/DNA level without ligand (log10) [1] | normalized RNA/DNA level with ligand (log10) [2]
UAGCAA | 1.716 ± 0.0099 | 1.84 ± 0.087
UCUGAC | 1.677 ± 0.011 | 1.84 ± 0.12
GUACAU | 1.61 ± 0.075 | 1.79 ± 0.074
UCUAGC | 1.69 ± 0.023 | 1.88 ± 0.13
CCAUCG | 1.73 ± 0.088 | 1.84 ± 0.1
CAGUAG | 1.724 ± 0.013 | 1.83 ± 0.096
UCCUUG | 1.74 ± 0.036 | 1.86 ± 0.082
AAAGCC | 1.7 ± 0.025 | 1.84 ± 0.13
AGGGCC | 1.84 ± 0.052 | 1.93 ± 0.068
CGUAGG | 1.71 ± 0.033 | 1.82 ± 0.14
UUGAGA | 1.58 ± 0.071 | 1.77 ± 0.11
GUCCCC | 1.76 ± 0.029 | 1.86 ± 0.061
GUCCCG | 1.76 ± 0.058 | 1.85 ± 0.21
UAGUCU | 1.707 ± 0.015 | 1.84 ± 0.053
AUUUCU | 1.74 ± 0.06 | 1.87 ± 0.12
CUAAGG | 1.748 ± 0.0049 | 1.8 ± 0.064
CUAAGC | 1.75 ± 0.039 | 1.87 ± 0.077
GAGACG | 1.8 ± 0.045 | 1.83 ± 0.13
AAGGAG | 1.54 ± 0.14 | 1.67 ± 0.053
ACGGUC | 1.637 ± 0.014 | 1.77 ± 0.17
ACACUU | 1.47 ± 0.091 | 1.72 ± 0.092
UGUCAG | 1.67 ± 0.042 | 1.82 ± 0.1
UGUCAC | 1.75 ± 0.04 | 1.87 ± 0.15
AUACUC | 1.74 ± 0.022 | 1.87 ± 0.072

Variant | normalized RNA/DNA level without ligand (log10) [1] | normalized RNA/DNA level with ligand (log10) [2]
ACGUUC | 1.61 ± 0.045 | 1.8 ± 0.1
CGACCA | 1.667 ± 0.013 | 1.77 ± 0.12
AACACC | 1.56 ± 0.007 | 1.73 ± 0.12
CUAGAG | 1.589 ± 0.011 | 1.74 ± 0.08
AGACAG | 1.55 ± 0.049 | 1.75 ± 0.15
AAAGAG | 1.44 ± 0.097 | 1.63 ± 0.1
AACAGC | 1.63 ± 0.078 | 1.78 ± 0.14
UGGGUC | 1.8 ± 0.026 | 1.93 ± 0.11
GAUCCA | 1.71 ± 0.032 | 1.85 ± 0.1
UUAUUA | 1.68 ± 0.069 | 1.8 ± 0.13
CACAAU | 1.47 ± 0.11 | 1.68 ± 0.097
UGUCUA | 1.71 ± 0.037 | 1.84 ± 0.15
ACCUCA | 1.62 ± 0.027 | 1.77 ± 0.12
GGUUGC | 1.7 ± 0.018 | 1.87 ± 0.021
AGAUAG | 1.53 ± 0.11 | 1.71 ± 0.086
GCAGGA | 1.4 ± 0.075 | 1.56 ± 0.091
CAACUC | 1.685 ± 0.011 | 1.82 ± 0.086
CGGAAG | 1.745 ± 0.015 | 1.86 ± 0.1
GAGAAC | 1.65 ± 0.031 | 1.8 ± 0.09
GAGAAU | 1.663 ± 0.011 | 1.76 ± 0.098
CAUUGG | 1.804 ± 0.0056 | 1.93 ± 0.15
CUCCCA | 1.718 ± 0.0069 | 1.87 ± 0.052
CGAUUC | 1.63 ± 0.022 | 1.81 ± 0.075
CGUAAG | 1.77 ± 0.056 | 1.86 ± 0.12

Variant | normalized RNA/DNA level without ligand (log10) [1] | normalized RNA/DNA level with ligand (log10) [2]
AUCUAG | 1.62 ± 0.032 | 1.8 ± 0.092
AUCUAU | 1.71 ± 0.073 | 1.79 ± 0.067
AUACGU | 1.67 ± 0.043 | 1.79 ± 0.059
GGUGGC | 1.68 ± 0.03 | 1.83 ± 0.076
AGUGUA | 1.51 ± 0.042 | 1.66 ± 0.11
CACCAC | 1.675 ± 0.0098 | 1.85 ± 0.096
AUGAUA | 1.53 ± 0.069 | 1.71 ± 0.14
AGGAGG | 1.6462 ± 0.0014 | 1.74 ± 0.1
AGCUCC | 1.81 ± 0.019 | 1.88 ± 0.089
GAAACC | 1.722 ± 0.0059 | 1.85 ± 0.1
CUAUUU | 1.59 ± 0.024 | 1.75 ± 0.08
CCGUGG | 1.53 ± 0.061 | 1.69 ± 0.14
ACGCAA | 1.47 ± 0.075 | 1.64 ± 0.11
AAGCUC | 1.74 ± 0.012 | 1.89 ± 0.13
AUCUUG | 1.657 ± 0.0055 | 1.81 ± 0.093
CCGGGU | 1.69 ± 0.066 | 1.81 ± 0.15
UCUAUU | 1.63 ± 0.034 | 1.78 ± 0.094
GUCGUG | 1.62 ± 0.041 | 1.79 ± 0.1
GCGAGC | 1.55 ± 0.066 | 1.71 ± 0.04
CUUCGG | 1.82 ± 0.028 | 1.886 ± 0.0058
AGAACG | 1.463 ± 0.001 | 1.67 ± 0.094
UCGUAG | 1.63 ± 0.059 | 1.82 ± 0.11
GCCGCG | 1.79 ± 0.03 | 1.92 ± 0.07
GUUUAC | 1.74 ± 0.029 | 1.84 ± 0.13

Variant | normalized RNA/DNA level without ligand (log10) [1] | normalized RNA/DNA level with ligand (log10) [2]
UAAGAC | 1.647 ± 0.0022 | 1.82 ± 0.13
GGUUCG | 1.7 ± 0.046 | 1.88 ± 0.075
AUAGUG | 1.56 ± 0.068 | 1.71 ± 0.083
UCACCG | 1.75 ± 0.024 | 1.89 ± 0.12
GUCCGG | 1.84 ± 0.12 | 1.96 ± 0.11
GCUGAC | 1.47 ± 0.069 | 1.67 ± 0.1
CUCUUU | 1.6 ± 0.071 | 1.76 ± 0.079
UUAAAG | 1.65 ± 0.023 | 1.81 ± 0.11
GUCUAA | 1.56 ± 0.069 | 1.72 ± 0.098
GUAGGC | 1.6 ± 0.064 | 1.78 ± 0.048
UCUUCG | 1.79 ± 0.055 | 1.89 ± 0.12
CUAUGU | 1.748 ± 0.012 | 1.84 ± 0.088
GUUAGC | 1.72 ± 0.02 | 1.85 ± 0.12
CGUCGU | 1.78 ± 0.061 | 1.9 ± 0.13
AAUGUA | 1.525 ± 0.01 | 1.64 ± 0.16
AAUGUC | 1.68 ± 0.03 | 1.84 ± 0.11
CGACGC | 1.74 ± 0.04 | 1.82 ± 0.12
CUAGGA | 1.54 ± 0.055 | 1.72 ± 0.099
AUGCUG | 1.68 ± 0.028 | 1.83 ± 0.074
AAUCUA | 1.55 ± 0.055 | 1.75 ± 0.071
AGUGGC | 1.6 ± 0.079 | 1.79 ± 0.11
CCUGAA | 1.32 ± 0.099 | 1.61 ± 0.077
GCAACC | 1.647 ± 0.0045 | 1.79 ± 0.097
UCAUUG | 1.617 ± 0.0034 | 1.82 ± 0.082

Variant | normalized RNA/DNA level without ligand (log10) [1] | normalized RNA/DNA level with ligand (log10) [2]
ACCGAC | 1.61 ± 0.06 | 1.77 ± 0.11
UAGCUG | 1.74 ± 0.038 | 1.86 ± 0.084
UAGCUC | 1.75 ± 0.022 | 1.89 ± 0.1
UCUCAC | 1.78 ± 0.018 | 1.87 ± 0.066
GUAACU | 1.7 ± 0.055 | 1.82 ± 0.13
ACACAU | 1.46 ± 0.06 | 1.67 ± 0.092
ACACAC | 1.633 ± 0.0097 | 1.81 ± 0.09
CCUACG | 1.7 ± 0.021 | 1.82 ± 0.13
UUCUCU | 1.8 ± 0.039 | 1.91 ± 0.11
UCUUAC | 1.704 ± 0.017 | 1.86 ± 0.054
UCGUUC | 1.739 ± 0.0071 | 1.88 ± 0.11
UCGCUG | 1.69 ± 0.0043 | 1.84 ± 0.082
GUAAGC | 1.58 ± 0.028 | 1.76 ± 0.16
AUGUAA | 1.54 ± 0.078 | 1.68 ± 0.14
AGUUCC | 1.8 ± 0.043 | 1.9 ± 0.084
CUUUAC | 1.73 ± 0.019 | 1.84 ± 0.1
UAAAAC | 1.697 ± 0.003 | 1.8 ± 0.1
AGUUGA | 1.57 ± 0.04 | 1.75 ± 0.1
CUUCAG | 1.732 ± 0.0075 | 1.81 ± 0.067
UUCAAA | 1.611 ± 0.0055 | 1.79 ± 0.057
